From publication PMC6057269, “A Flat BAR Protein Promotes Actin Polymerization at the Base of Clathrin-Coated Pits” (Cell, 2018)
Blank lines part the entries; values can stand above or below the binder they belong to.

Legend:
[1] = target: the molecule itself; assay: cryo-EM structure; single particle cryo-EM of F2B1 at 0.15-0.3 mg/ml; C2 symmetry applied; 9.2 Å reconstruction
[2] = target: the molecule itself; assay: SEC-MALS; Superdex S-200 10/300, 150 mM NaCl, 20 mM HEPES pH 7.5, 500 μM TCEP; F2B12 at two concentrations
[3] = target: T1, ITSN1 SH3d (aa1076-1138), recombinant (human, UniProt Q15811-1 1076-1138); assay: pull-down; GST-tagged SH3 domains on glutathione beads incubated with recombinant protein for 10 min at room temperature, 6 washes; Coomassie stained gel; conditions: both partners purified
T1 construct: Intersectin 1 long form (ITSN1L), human, fourth SH3 domain (SH3d), residues 1076-1138; The purification of this protein is not described; the tag was probably cleaved as for the FCHSD2 proteins (surmised); also called pOPINS-ITSN1-SH3d; source: E. coli, 6xHis-SUMO construct (pOPINS)
T1 sequence (looked up): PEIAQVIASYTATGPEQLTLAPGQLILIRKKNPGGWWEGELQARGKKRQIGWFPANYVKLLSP

[4] = target: T1, ITSN1 SH3d (aa1076-1138), recombinant; assay: ITC; isothermal titration calorimetry of FCHSD2 SH3-2 and ITSN1 SH3d; conditions and direction of titration not told; conditions: both partners purified
[5] = target: T2, GST-tagged ITSN1 SH3d (aa1076-1138) T1086A (human, UniProt Q15811-1 1076-1138, T1086A); assay: pull-down; GST-tagged SH3 domains on glutathione beads incubated with recombinant protein for 10 min at room temperature, 6 washes; Coomassie stained gel; conditions: both partners purified
T2 construct: Intersectin 1 long form (ITSN1L), human, SH3d, residues 1076-1138; also called crystal contact control mutant T1086; not shown: GST, N-terminal, kept
T2 sequence (looked up): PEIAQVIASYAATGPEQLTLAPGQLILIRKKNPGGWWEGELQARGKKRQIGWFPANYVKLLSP

B1: FCHSD2 BAR + SH3-1 (F2B1: aa1-530) (domain or fragment, human, UniProt O94868-1 1-530, looked up)
chain: MQPPPRKVKVTQELKNIQVEQMTKLQAKHQAECDLLEDMRTFSQKKAAIEREYAQGMQKLASQYLKRDWPGVKADDRNDYRSMYPVWKSFLEGTMQVAQSRMNICENYKNFISEPARTVRSLKEQQLKRCVDQLTKIQTELQETVKDLAKGKKKYFETEQMAHAVREKADIEAKSKLSLFQSRISLQKASVKLKARRSECNSKATHARNDYLLTLAAANAHQDRYYQTDLVNIMKALDGNVYDHLKDYLIAFSRTELETCQAVQNTFQFLLENSSKVVRDYNLQLFLQENAVFHKPQPFQFQPCDSDTSRQLESETGTTEEHSLNKEARKWATRVAREHKNIVHQQRVLNDLECHGAAVSEQSRAELEQKIDEARENIRKAEIIKLKAEARLDLLKQIGVSVDTWLKSAMNQVMEELENERWARPPAVTSNGTLHSLNADTEREEGEEFEDNMDVFDDSSSSPSGTLRNYPLTCKVVYSYKASQPDELTIEEHEVLEVIEDGDMEDWVKARNKVGQVGYVPEKYLQFPTS
notes: FCHSD2, human, F-BAR + SH3-1, residues 1-530; also called FCHSD2 F-BAR+SH3-1; source: E. coli Rosetta (DE3), purified (HisTrap, anion exchange, Sumo protease, Superdex 200); not shown: His-SUMO, N-terminal, cleaved
- binding result [1]: binds

B2: FCHSD2 BAR + SH3-1 + SH3-2 (F2B12: aa1-629) (domain or fragment, human, UniProt O94868-1 1-629, looked up)
chain: MQPPPRKVKVTQELKNIQVEQMTKLQAKHQAECDLLEDMRTFSQKKAAIEREYAQGMQKLASQYLKRDWPGVKADDRNDYRSMYPVWKSFLEGTMQVAQSRMNICENYKNFISEPARTVRSLKEQQLKRCVDQLTKIQTELQETVKDLAKGKKKYFETEQMAHAVREKADIEAKSKLSLFQSRISLQKASVKLKARRSECNSKATHARNDYLLTLAAANAHQDRYYQTDLVNIMKALDGNVYDHLKDYLIAFSRTELETCQAVQNTFQFLLENSSKVVRDYNLQLFLQENAVFHKPQPFQFQPCDSDTSRQLESETGTTEEHSLNKEARKWATRVAREHKNIVHQQRVLNDLECHGAAVSEQSRAELEQKIDEARENIRKAEIIKLKAEARLDLLKQIGVSVDTWLKSAMNQVMEELENERWARPPAVTSNGTLHSLNADTEREEGEEFEDNMDVFDDSSSSPSGTLRNYPLTCKVVYSYKASQPDELTIEEHEVLEVIEDGDMEDWVKARNKVGQVGYVPEKYLQFPTSNSLLSMLQSLAALDSRSHTSSNSTEAELVSGSLNGDASVCFVKALYDYEGQTDDELSFPEGAIIRILNKENQDDDGFWEGEFNGRIGVFPSVLVEELSA
notes: FCHSD2, human, F-BAR + SH3-1 + SH3-2, residues 1-629; also called FCHSD2 (F2B12 construct); source: E. coli Rosetta (DE3), purified (HisTrap, anion exchange, Sumo protease, Superdex 200); not shown: His-SUMO, N-terminal, cleaved
- stoichiometry N [2]: 2

Continued, values first:

- binding result [3]: binds
B3: GST-tagged FCHSD2 SH3-2 (aa568-629) N613A (domain or fragment, human, UniProt O94868-1 568-629, looked up)
chain: SVCFVKALYDYEGQTDDELSFPEGAIIRILNKENQDDDGFWEGEFAGRIGVFPSVLVEELSA
notes: FCHSD2, human, second SH3 domain, residues 568-629; also called crystal contact control mutant N613; not shown: GST, N-terminal, kept

- Kd [4]: 248 nM
- stoichiometry N [4]: ~1
- binding result [5]: binds
B4: FCHSD2 SH3-2 (aa568-629), recombinant (domain or fragment, human, UniProt O94868-1 568-629, looked up)
chain: SVCFVKALYDYEGQTDDELSFPEGAIIRILNKENQDDDGFWEGEFNGRIGVFPSVLVEELSA
notes: FCHSD2, human, second SH3 domain, residues 568-629; that the same preparation was the prey of the GST pull-downs and the ITC sample is surmised; also called pOPINS-FCHSD2 SH3-2; F2S2; source: E. coli Rosetta (DE3), purified (HisTrap, anion exchange, Sumo protease, Superdex 200); not shown: His-SUMO, N-terminal, cleaved

- binding result [3]: binds
B5: GST-tagged FCHSD2 SH3-2 (aa568-629) D583A (domain or fragment, human, UniProt O94868-1 568-629, looked up)
chain: SVCFVKALYDYEGQTADELSFPEGAIIRILNKENQDDDGFWEGEFNGRIGVFPSVLVEELSA
notes: FCHSD2, human, second SH3 domain, residues 568-629; also called crystal contact control mutant D583; not shown: GST, N-terminal, kept
